{
  "source": "the RNAGym collection of RNA variant scans (doi:10.1021/acssynbio.7b00057)",
  "parents": {"B1": {"name": "Pistol ribozyme (parent)", "chain": "GGGUCGUUGUUCCAUAAUCGCGUGGAUAUGGCACGCAAGUUUCUACCGGGCACCGUAAAUGUCCGACUGGAGCCGUUCGGGCGGCUAUAAACAGACCUCAGGCCCGAAGCGUGGCGGCACCUGCCGCCGGUGGUAAAAAAGAUCGGAAGAGCACACGUCU"}},
  "data": [
    {"variants_of": "B1", "experiment": "aptazyme ON/OFF ratio, guanine; higher = stronger switching; co-transcriptional cleavage with and without guanine", "values": [
      {"variant": "GGGUCGUAGAUAGAUAAUCGCGUGGAUAUGGCACGCAAGUUUCUACCGGGCACCGUAAAUGUCCGACUGGAGCCGUUCGGGCGGCUAUAAACAGACCUCAGGCCCGAAGCGUGGCGGCACCUGCCGCCGGUGGUAAAAAAGAUCGGAAGAGCACACGUCU", "aptazyme ON/OFF ratio": 1.08},
      {"variant": "GGGUCGUAGAUAAAUAAUCGCGUGGAUAUGGCACGCAAGUUUCUACCGGGCACCGUAAAUGUCCGACUGGAGCCGUUCGGGCGGCUAUAAACAGACCUCAGGCCCGAAGCGUGGCGGCACCUGCCGCCGGUGGUAAAAAAGAUCGGAAGAGCACACGUCU", "aptazyme ON/OFF ratio": 1.19},
      {"variant": "GGGUCGUAUUGCUAUAAUCGCGUGGAUAUGGCACGCAAGUUUCUACCGGGCACCGUAAAUGUCCGACUGGAGCCGUUCGGGCGGCUAUAAACAGACCUCAGGCCCGAAGCGUGGCGGCACCUGCCGCCGGUGGUAAAAAAGAUCGGAAGAGCACACGUCU", "aptazyme ON/OFF ratio": 1.24},
      {"variant": "GGGUCGUAUUGCAAUAAUCGCGUGGAUAUGGCACGCAAGUUUCUACCGGGCACCGUAAAUGUCCGACUGGAGCCGUUCGGGCGGCUAUAAACAGACCUCAGGCCCGAAGCGUGGCGGCACCUGCCGCCGGUGGUAAAAAAGAUCGGAAGAGCACACGUCU", "aptazyme ON/OFF ratio": 1.14},
      {"variant": "GGGUCGUAUUGCGAUAAUCGCGUGGAUAUGGCACGCAAGUUUCUACCGGGCACCGUAAAUGUCCGACUGGAGCCGUUCGGGCGGCUAUAAACAGACCUCAGGCCCGAAGCGUGGCGGCACCUGCCGCCGGUGGUAAAAAAGAUCGGAAGAGCACACGUCU", "aptazyme ON/OFF ratio": 1.08},
      {"variant": "GGGUCGUAGAAGCAUAAUCGCGUGGAUAUGGCACGCAAGUUUCUACCGGGCACCGUAAAUGUCCGACUGGAGCCGUUCGGGCGGCUAUAAACAGACCUCAGGCCCGAAGCGUGGCGGCACCUGCCGCCGGUGGUAAAAAAGAUCGGAAGAGCACACGUCU", "aptazyme ON/OFF ratio": 1.07},
      {"variant": "GGGUCGUAGAAACAUAAUCGCGUGGAUAUGGCACGCAAGUUUCUACCGGGCACCGUAAAUGUCCGACUGGAGCCGUUCGGGCGGCUAUAAACAGACCUCAGGCCCGAAGCGUGGCGGCACCUGCCGCCGGUGGUAAAAAAGAUCGGAAGAGCACACGUCU", "aptazyme ON/OFF ratio": 1.14},
      {"variant": "GGGUCGUAGAAUCAUAAUCGCGUGGAUAUGGCACGCAAGUUUCUACCGGGCACCGUAAAUGUCCGACUGGAGCCGUUCGGGCGGCUAUAAACAGACCUCAGGCCCGAAGCGUGGCGGCACCUGCCGCCGGUGGUAAAAAAGAUCGGAAGAGCACACGUCU", "aptazyme ON/OFF ratio": 1.09},
      {"variant": "GGGUCGUAUUGUUAUAAUCGCGUGGAUAUGGCACGCAAGUUUCUACCGGGCACCGUAAAUGUCCGACUGGAGCCGUUCGGGCGGCUAUAAACAGACCUCAGGCCCGAAGCGUGGCGGCACCUGCCGCCGGUGGUAAAAAAGAUCGGAAGAGCACACGUCU", "aptazyme ON/OFF ratio": 1.5},
      {"variant": "GGGUCGUAGAUGGAUAAUCGCGUGGAUAUGGCACGCAAGUUUCUACCGGGCACCGUAAAUGUCCGACUGGAGCCGUUCGGGCGGCUAUAAACAGACCUCAGGCCCGAAGCGUGGCGGCACCUGCCGCCGGUGGUAAAAAAGAUCGGAAGAGCACACGUCU", "aptazyme ON/OFF ratio": 1.19},
      {"variant": "GGGUCGUAGAUGUAUAAUCGCGUGGAUAUGGCACGCAAGUUUCUACCGGGCACCGUAAAUGUCCGACUGGAGCCGUUCGGGCGGCUAUAAACAGACCUCAGGCCCGAAGCGUGGCGGCACCUGCCGCCGGUGGUAAAAAAGAUCGGAAGAGCACACGUCU", "aptazyme ON/OFF ratio": 1.37},
      {"variant": "GGGUCGUAGAUGAAUAAUCGCGUGGAUAUGGCACGCAAGUUUCUACCGGGCACCGUAAAUGUCCGACUGGAGCCGUUCGGGCGGCUAUAAACAGACCUCAGGCCCGAAGCGUGGCGGCACCUGCCGCCGGUGGUAAAAAAGAUCGGAAGAGCACACGUCU", "aptazyme ON/OFF ratio": 1.15},
      {"variant": "GGGUCGUAGAACUAUAAUCGCGUGGAUAUGGCACGCAAGUUUCUACCGGGCACCGUAAAUGUCCGACUGGAGCCGUUCGGGCGGCUAUAAACAGACCUCAGGCCCGAAGCGUGGCGGCACCUGCCGCCGGUGGUAAAAAAGAUCGGAAGAGCACACGUCU", "aptazyme ON/OFF ratio": 1.06},
      {"variant": "GGGUCGUAGAACAAUAAUCGCGUGGAUAUGGCACGCAAGUUUCUACCGGGCACCGUAAAUGUCCGACUGGAGCCGUUCGGGCGGCUAUAAACAGACCUCAGGCCCGAAGCGUGGCGGCACCUGCCGCCGGUGGUAAAAAAGAUCGGAAGAGCACACGUCU", "aptazyme ON/OFF ratio": 1.12},
      {"variant": "GGGUCGUAGAACGAUAAUCGCGUGGAUAUGGCACGCAAGUUUCUACCGGGCACCGUAAAUGUCCGACUGGAGCCGUUCGGGCGGCUAUAAACAGACCUCAGGCCCGAAGCGUGGCGGCACCUGCCGCCGGUGGUAAAAAAGAUCGGAAGAGCACACGUCU", "aptazyme ON/OFF ratio": 1.16},
      {"variant": "GGGUCGUAGAAUGAUAAUCGCGUGGAUAUGGCACGCAAGUUUCUACCGGGCACCGUAAAUGUCCGACUGGAGCCGUUCGGGCGGCUAUAAACAGACCUCAGGCCCGAAGCGUGGCGGCACCUGCCGCCGGUGGUAAAAAAGAUCGGAAGAGCACACGUCU", "aptazyme ON/OFF ratio": 1.09},
      {"variant": "GGGUCGUAGAAUAAUAAUCGCGUGGAUAUGGCACGCAAGUUUCUACCGGGCACCGUAAAUGUCCGACUGGAGCCGUUCGGGCGGCUAUAAACAGACCUCAGGCCCGAAGCGUGGCGGCACCUGCCGCCGGUGGUAAAAAAGAUCGGAAGAGCACACGUCU", "aptazyme ON/OFF ratio": 1.2},
      {"variant": "GGGUCGUAGAAUUAUAAUCGCGUGGAUAUGGCACGCAAGUUUCUACCGGGCACCGUAAAUGUCCGACUGGAGCCGUUCGGGCGGCUAUAAACAGACCUCAGGCCCGAAGCGUGGCGGCACCUGCCGCCGGUGGUAAAAAAGAUCGGAAGAGCACACGUCU", "aptazyme ON/OFF ratio": 1.17}
    ]}
  ]
}
